Laboratory results published in patent US12364733B1, “Method for treating septic shock” (Inotrem, priority 2018, dated 2025).
“Also recorded” adds a separate entry of the source.

Tests used:
septic shock patients = assay: Phase IIa clinical trial with nangibotide in septic shock patients (NCT03158948): safety, treatment emergent adverse events; assay type: in vivo, human; settings: for safety and tolerability: up to 3 mg/kg/h
Experimental: This was a European prospective, […], multinational study in 14 centers from 4 countries (France, Belgium, the Netherlands, and Spain). Patients were recruited from July 2017 to June 2018. The study was conducted in accordance with the principles set forth in the Declaration of Helsinki and subsequent amendments, the Guidelines of the International Conference on Harmonization on GCP, as well as the requirements of national drug and data protection laws and other applicable regulatory requirements.
This was a randomized, double-blind, two-stage, placebo-controlled study. As described in FIG. 7, the study was composed of 2 stages with a similar treatment regimen, in which 0.3, 1.0 or 3.0 mg/kg/h of nangibotide (corresponding to peptide LR12, having an amino acid sequence as set forth in SEQ ID NO: 9, also known as motrem) was tested versus placebo. All patients with a diagnosis of septic shock were considered for study participation. All potential study patients underwent standard care management procedures. Patients with evidence of septic shock according to the Sepsis-3 definition (Singer et al, JAMA 2016) were considered for inclusion (i.e., patients suffering from sepsis and having (i) persisting hypotension requiring vasopressors to maintain their mean arterial pressure ≥65 mm Hg and (ii) a serum lactate level >2 mmol/L (18 mg/dL) despite adequate volume resuscitation).
After screening for eligibility, patients were randomized to one of the treatment arms. Then, they received either a 5 mg/kg loading dose of nangibotide over 15 minutes followed by a continuous intravenous (i.v.) infusion of nangibotide or a matching placebo on top of standard of care. Treatment with study drug was initiated as early as possible, but no later than 24 hours after the onset of septic shock, defined by the start of vasopressor therapy. Patients were treated until 12 (±2) hours after the resolution of their septic shock (defined as vasopressor withdrawal) with a maximum treatment duration of 5 days (120 hours).
Stage 1 was performed to investigate ascending doses of nangibotide or placebo in a sequential design in cohorts of 4 patients (3:1 randomization). After completion of a cohort, safety and PK data were reviewed by an independent data safety monitoring board (DSMB) and the study could progress to the next cohort/stage. Stage 2 investigated 3 doses of nangibotide in a randomized, balanced, parallel-group design involving up to 3 doses of nangibotide and a placebo arm.
Adverse events (AEs) were coded using the MedDRA dictionary version 18.1. Treatment-emergent adverse events (TEAEs) were summarized and listed. Analysis was performed in 49 septic shock patients. The demographic and baseline characteristics were summarized in a descriptive fashion within each population: categorical variables were summarized by contingency tables (frequencies and percentages). sTREM-1 levels at day 1 were also described (mean, standard deviation, standard error, median, quartiles and range, minimum and maximum values). Mortality rates were reported by frequency and percentage. For continuous endpoints, i.e., the sequential organ failure assessment (SOFA), missing data were imputed using LOCF (Last Observation Carry-Forward). For time-to-event analyses, i.e., duration of invasive mechanical ventilation (IMV), duration of continuous renal replacement therapy (CRRT), survival, censored data techniques were utilized. In addition, a sensitivity analysis of time to event data (except survival) was performed using censoring at maximum limit for the corresponding observation period (i.e., either day 28 or day 90). […] The following comparisons were made: each nangibotide dose arm to placebo, all nangibotide doses combined versus placebo, and dose-response using an ordinal trend test. […]

[1] = Blood nangibotide concentrations by LC-MS/MS (pharmacokinetics, phase IIa trial); assay type: in vivo, human
Experimental: Blood nangibotide concentrations were determined by a validated LC-MS/MS method in accordance with European Medicines Agency (EMA) guidelines on bioanalytical method validation EMEA/CHMP/EWP/192217/2009, version EMA/275542/2014. The peptide was stabilized in the blood samples by treatment with a 10% trichloroacetic acid solution ([…], 4° C.) and centrifugation (3500 g, 10 min, 4° C.) to collect and freeze the supernatant before analysis. The lower limit of quantification (LLOQ) and upper limit of quantification (ULOQ) were 5 ng/mL and 1000 ng/mL respectively. Standard curve was linear over the range 5 ng/mL to 1000 ng/mL with a correlation coefficient greater than 0.995. Within-run and between-run precision and accuracy within +/−20% LLOQ and +/−15% (other levels up to ULOQ) were achieved during a 3-run validation for quality controls (QCs) for nangibotide.

nangibotide (LQEEDAGEYGCM; TLT-1 peptide)
All TEAEs leading to treatment withdrawal, % of all TEAEs (septic shock patients; 0.3 mg/kg/h): (0.0%) | All TEAEs leading to treatment withdrawal, number (septic shock patients; 0.3 mg/kg/h): 0 | All TEAEs related to study drug (by investigator), % of all TEAEs (septic shock patients; 0.3 mg/kg/h): (0.0%) | All TEAEs related to study drug (by investigator), number (septic shock patients; 0.3 mg/kg/h): 0 | All TEAEs with intensity severe, % of all TEAEs (septic shock patients; 0.3 mg/kg/h): (21.4%) | All TEAEs with intensity severe, number (septic shock patients; 0.3 mg/kg/h): 12 | All serious TEAEs (including death), % of all TEAEs (septic shock patients; 0.3 mg/kg/h): (8.9%) | All serious TEAEs (including death), number (septic shock patients; 0.3 mg/kg/h): 5 | All TEAEs leading to treatment withdrawal, % of all TEAEs (septic shock patients; 1.0 mg/kg/h): (0.0%) | All TEAEs leading to treatment withdrawal, number (septic shock patients; 1.0 mg/kg/h): 0 | All TEAEs related to study drug (by investigator), % of all TEAEs (septic shock patients; 1.0 mg/kg/h): (7.1%) | All TEAEs related to study drug (by investigator), number (septic shock patients; 1.0 mg/kg/h): 4 | All TEAEs with intensity severe, % of all TEAEs (septic shock patients; 1.0 mg/kg/h): (23.2%) | All TEAEs with intensity severe, number (septic shock patients; 1.0 mg/kg/h): 13 | All serious TEAEs (including death), % of all TEAEs (septic shock patients; 1.0 mg/kg/h): (5.4%) | All serious TEAEs (including death), number (septic shock patients; 1.0 mg/kg/h): 3 | All TEAEs leading to treatment withdrawal, % of all TEAEs (septic shock patients; 3.0 mg/kg/h): (0.0%) | All TEAEs leading to treatment withdrawal, number (septic shock patients; 3.0 mg/kg/h): 0 | All TEAEs related to study drug (by investigator), % of all TEAEs (septic shock patients; 3.0 mg/kg/h): (0.0%) | All TEAEs related to study drug (by investigator), number (septic shock patients; 3.0 mg/kg/h): 0 | All TEAEs with intensity severe, % of all TEAEs (septic shock patients; 3.0 mg/kg/h): (13.1%) | All TEAEs with intensity severe, number (septic shock patients; 3.0 mg/kg/h): 8 | All serious TEAEs (including death), % of all TEAEs (septic shock patients; 3.0 mg/kg/h): (8.2%) | All serious TEAEs (including death), number (septic shock patients; 3.0 mg/kg/h): 5 | adverse events related to nangibotide treatment at the highest dose (septic shock patients; highest dose): no adverse events related to nangibotide treatment were observed | AEs related to infections and cardiac disorders, nangibotide groups vs placebo (septic shock patients; human, in vivo): proportionally higher in the nangibotide groups | incidence of atrial fibrillation and thrombocytopenia, nangibotide groups vs placebo (septic shock patients; human, in vivo): proportionally higher in the nangibotide groups | number of SAEs/AEs and number of patients with SAEs/AEs, nangibotide groups vs placebo group (septic shock patients; human, in vivo): comparable | suspected unexpected serious adverse reactions (SUSARs), number (septic shock patients; nangibotide-treated group, without obvious explanation): Two | adverse events leading to treatment withdrawal (septic shock patients; septic shock patients, 0.3-3.0 mg/kg/h): No adverse events (AEs) led to treatment withdrawal | safety and tolerability (septic shock patients; septic shock patients): safe and well-tolerated | safety and tolerability (septic shock patients; septic shock patients, listed as nangibotide): safe and well tolerated; also recorded: well-tolerated at all doses tested | nangibotide blood concentration versus dose ([1]; 0.3, 1.0, 3.0 mg/kg/h): proportional with the dose | clearance after the end of infusion ([1]; human, in vivo): quickly cleared | pharmacokinetics / blood concentrations compared with healthy volunteers ([1]; in vivo): within the same range previously observed in healthy volunteers | pharmacokinetic behavior during intravenous infusion ([1]; in vivo, iv): linear behavior
